In the RNAGym collection of RNA variant scans (doi:10.7554/elife.80360):

B1: CPEB3 Ribozyme (parent)
chain: GGGGGCCACAGCAGAAGCGUUCACGUCGCGGCCCCUGUCAGAUUCUGGUGAAUCUGCGAAUUCUGCUGU

Variants of: B1
Assay: self-cleavage, relative activity (ratio to wild type); higher = more cleavage; co-transcriptional

Variant	self-cleavage
GGGGGCCAUAGCAGAAGCGUUCACGUCGCGGCCCUUGUCAGAUUCUGGUGAAUCUGCGAAUUCUGCUGU [C9U C35U]	0.982
GGGGGCCAUAGCAGAAGCGUUCACGUCGCGGCCCAUGUCAGAUUCUGGUGAAUCUGCGAAUUCUGCUGU [C9U C35A]	0.342
GGGGGCCAUAGCAGAAGCGUUCACGUCGCGGCCCGUGUCAGAUUCUGGUGAAUCUGCGAAUUCUGCUGU [C9U C35G]	0.76
GGGGGCCAGAGCAGAAGCGUUCACGUCGCGGCCCCUGUCAGAUACUGGUGAAUCUGCGAAUUCUGCUGU [C9G U44A]	0.956
GGGGGCCAGAGCAGAAGCGUUCACGUCGCGGCCCCUGUCAGAUCCUGGUGAAUCUGCGAAUUCUGCUGU [C9G U44C]	0.954
GGGGGCCAGAGCAGAAGCGUUCACGUCGCGGCCCCUGUCAGAUUCUGGUGAAUCUGCGAAUCCUGCUGU [C9G U62C]	0.96
GGGGGCCAGAGCAGAAGCGUUCACGUCGCGGCCCCUGUCAGAUUCUGGUGAAUCUGCGAAUACUGCUGU [C9G U62A]	0.977
GGGGGCCAGAGCAGAAGCGUUCACGUCGCGGCCCCUGUCAGAUUCUGGUGAAUCUGCGAAUGCUGCUGU [C9G U62G]	0.849
GGGGGCCAUAGCAGAAGCGUUCACGUCGCGGCCCCUGUCAGGUUCUGGUGAAUCUGCGAAUUCUGCUGU [C9U A42G]	0.96
GGGGGCCAUAGCAGAAGCGUUCACGUCGCGGCCCCUGUCAGCUUCUGGUGAAUCUGCGAAUUCUGCUGU [C9U A42C]	1.03
GGGGGCCAUAGCAGAAGCGUUCACGUCGCGGCCCCUGUCAGUUUCUGGUGAAUCUGCGAAUUCUGCUGU [C9U A42U]	0.997
GGGGGCCAUAGCAGAAGCGUUCACGUCGCGGCCCCUGUCAGAUUCUGGUGAAUCUGCGGAUUCUGCUGU [C9U A59G]	0.986
GGGGGCCAUAGCAGAAGCGUUUACGUCGCGGCCCCUGUCAGAUUCUGGUGAAUCUGCGAAUUCUGCUGU [C9U C22U]	0.403
GGGGGCCAUAGCAGAAGCGUUCAUGUCGCGGCCCCUGUCAGAUUCUGGUGAAUCUGCGAAUUCUGCUGU [C9U C24U]	0.888
GGGGGCCAUAGCAGAAGCGUUCAAGUCGCGGCCCCUGUCAGAUUCUGGUGAAUCUGCGAAUUCUGCUGU [C9U C24A]	0.827
GGGGGCCAUAGCAGAAGCGUUCAGGUCGCGGCCCCUGUCAGAUUCUGGUGAAUCUGCGAAUUCUGCUGU [C9U C24G]	0.535
GGGGGCCAGAGCAGAAGCGUUCACGUCGCGGCCCCUGUCAGAUUCUGGUGAAUCUGCGAAUUCCGCUGU [C9G U64C]	0.864
GGGGGCCAGAGCAGAAGCGUUCACGUCGCGGCCCCUGUCAGAUUCUGGUGAAUCUGCGAAUUCAGCUGU [C9G U64A]	0.884
GGGGGCCAGAGCAGAAGCGUUCACGUCGCGGCCCCUGUCAGAUUCUGGUGAAUCUGCGAAUUCUGCUGA [C9G U69A]	1.04
GGGGGCCAGAGCAGAAGCGUUCACGUCGCGGCCCCUGUCAGAUUCUGGUGAAUCUGCGAAUUCUGCUGG [C9G U69G]	1.05

Variant	self-cleavage
GGGGGCCAUAGCAGAAGCGUUCACGUCGAGGCCCCUGUCAGAUUCUGGUGAAUCUGCGAAUUCUGCUGU [C9U C29A]	0.922
GGGGGCCAUAGCAGAAGCGUUCACGUCGGGGCCCCUGUCAGAUUCUGGUGAAUCUGCGAAUUCUGCUGU [C9U C29G]	0.923
GGGGGCCAUAGCAGAAGCGUUCACGUCGCGGCCCCUGUCAGAUUCUGGUGAAUGUGCGAAUUCUGCUGU [C9U C54G]	0.994
GGGGGCCAUAGCAGAAGCGUUCACGUCGCGGCCCCUGUCAGAUUCUGGUGAAUAUGCGAAUUCUGCUGU [C9U C54A]	0.978
GGGGGCCAUAGCAGACGCGUUCACGUCGCGGCCCCUGUCAGAUUCUGGUGAAUCUGCGAAUUCUGCUGU [C9U A16C]	0.531
GGGGGCCAUAGCAGAAGCGUUCCCGUCGCGGCCCCUGUCAGAUUCUGGUGAAUCUGCGAAUUCUGCUGU [C9U A23C]	0.982
GGGGGCCAUAGCAGAAGCGUUCGCGUCGCGGCCCCUGUCAGAUUCUGGUGAAUCUGCGAAUUCUGCUGU [C9U A23G]	1.01
GGGGGCCAUAGCAGAAGCGUUCUCGUCGCGGCCCCUGUCAGAUUCUGGUGAAUCUGCGAAUUCUGCUGU [C9U A23U]	1.01
GGGGGCCAUAGCAGAAGCGUUCACGUCGCGGCCCCUGUGAGAUUCUGGUGAAUCUGCGAAUUCUGCUGU [C9U C39G]	0.962
GGGGGCCAUAGCAGAAGCGUUCACGUCGCGGCCCCUGUAAGAUUCUGGUGAAUCUGCGAAUUCUGCUGU [C9U C39A]	0.912
GGGGGCCAUAGCAGAAGCGUUCACGUCGCGGGCCCUGUCAGAUUCUGGUGAAUCUGCGAAUUCUGCUGU [C9U C32G]	0.838
GGGGGCCAUAGCAGAAGCGUUCACGUCGCGGACCCUGUCAGAUUCUGGUGAAUCUGCGAAUUCUGCUGU [C9U C32A]	1.02
GGGGGCCAGAGCAGAAGCGUUCACGUCGCGGCCCCUGUCAGAUUCUGGUGAAGCUGCGAAUUCUGCUGU [C9G U53G]	0.961
GGGGGCCAGAGCAGAAGCGUUCACGUCGCGGCCCCUGUCAGAUUCUGGUGAACCUGCGAAUUCUGCUGU [C9G U53C]	0.956
GGGGGCCAUAGCAGAAGCGUUCACGUCGCGGCCCCUGUCAGAUUAUGGUGAAUCUGCGAAUUCUGCUGU [C9U C45A]	1.01
GGGGGCCAUAGCAGAAGCGUUCACGUCGCGGCCCCUGUCAGAUUUUGGUGAAUCUGCGAAUUCUGCUGU [C9U C45U]	1.01
GGGGGCCAGAGCAGAAGCGUUCACGUCGCGGCCCCUGACAGAUUCUGGUGAAUCUGCGAAUUCUGCUGU [C9G U38A]	0.988
GGGGGCCAGAGCAGAAGCGUUCACGUCGCGGCCCCUGGCAGAUUCUGGUGAAUCUGCGAAUUCUGCUGU [C9G U38G]	0.343
GGGGGCCAUAGCAGAAGCGUUCACGUCGCGGCACCUGUCAGAUUCUGGUGAAUCUGCGAAUUCUGCUGU [C9U C33A]	0.994
